Experimental data published in patent publication US20240279281A1, “Peptide Inhibitors of Interleukin-23 Receptor” (Janssen Pharmaceutica NV, priority 2023, published 2024).
Starred links: 1 amine or outer side, 2 acyl side, 3 side chain; linkers in the order of their positions; H or OH if unused. Positions of bridges follow the written chain, without caps; N, C: chain ends. Non-standard residues stand in square brackets, D forms with d. No end group written: not given here. X7 = 2‑amino‑3‑(5-methylpyridin-3-yl)propanoic acid, Cc1cncc(CC(N[*:1])C(=O)[*:2])c1; Phe(4-OMe) = COc1ccc(C[C@H](N[*:1])C(=O)[*:2])cc1; Trp(7-Br) = N[C@@H](Cc1c[nH]c2c(Br)cccc12)C(=O)O; 2Nal(6-OH) = N[C@@H](Cc1ccc2cc(O)ccc2c1)C(=O)O; Trp(7-Me) = Cc1cccc2c(C[C@H](N)C(=O)O)c[nH]c12; dLys(Me3) = C[N+](C)(C)CCCC[C@@H](N)C(=O)O; AEF = NCCOc1ccc(C[C@H](N)C(=O)O)cc1; 3Pal = N[C@@H](Cc1cccnc1)C(=O)O; Aad = N[C@@H](CCCC(=O)O)C(=O)O; Pen = CC(C)(S)[C@H](N)C(=O)O; αMeK = C[C@](N)(CCCCN)C(=O)O; αMeC = C[C@](N)(CS)C(=O)O; lipid = not defined here; Thp = NC1(C(=O)O)CCOCC1; PEG = not defined here; Sar = CNCC(=O)O

Target: T1, interleukin-23 receptor (IL-23R), Q5VWK5
T1 chain: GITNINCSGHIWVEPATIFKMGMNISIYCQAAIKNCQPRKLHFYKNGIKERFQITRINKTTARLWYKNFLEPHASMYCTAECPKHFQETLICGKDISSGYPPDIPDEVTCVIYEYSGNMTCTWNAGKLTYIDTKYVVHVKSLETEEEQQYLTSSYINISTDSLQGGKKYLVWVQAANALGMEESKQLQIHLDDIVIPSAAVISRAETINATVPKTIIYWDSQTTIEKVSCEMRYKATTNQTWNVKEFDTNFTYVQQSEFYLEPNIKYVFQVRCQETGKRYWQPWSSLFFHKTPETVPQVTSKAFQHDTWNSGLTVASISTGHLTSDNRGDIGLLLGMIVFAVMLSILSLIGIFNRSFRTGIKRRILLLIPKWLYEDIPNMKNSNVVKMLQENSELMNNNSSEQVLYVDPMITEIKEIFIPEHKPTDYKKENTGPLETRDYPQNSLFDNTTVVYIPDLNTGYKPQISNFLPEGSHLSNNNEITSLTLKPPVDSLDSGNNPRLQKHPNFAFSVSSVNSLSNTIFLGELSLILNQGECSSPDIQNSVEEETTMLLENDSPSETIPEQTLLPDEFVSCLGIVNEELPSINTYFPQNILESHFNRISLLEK
Test: cell-based or functional assay

B1: SEQ ID NO: 303 (peptide)
peptide: [Pen]LT[Trp(7-Me)]K(lipid)[Pen]F[2Nal(6-OH)][αMeK]LN[3Pal][Sar]
modifications: disulfide 1-6 (inferred); ends not checked; also: Lys5 lipidated, lipid not given here
B1 was tested, and the IL23R Reporter Assay IC50 was < 10 nM.

B2: SEQ ID NO: 304 (peptide)
peptide: [Pen]LT[Trp(7-Me)]K(Ac)[Pen]F[2Nal(6-OH)][αMeK]LN[3Pal][Sar]
modifications: disulfide 1-6 (inferred); ends not checked
For B2, the IL23R Reporter Assay IC50 was < 10 nM.

B3: SEQ ID NO: 305 (peptide)
peptide: [Pen]NT[Trp(7-Me)]K(lipid)[Pen]F[2Nal(6-OH)][αMeK]LN[3Pal][Sar]
modifications: not fully specified (bridges); ends and bridges not checked; also: lipid group unspecified
With B3 the IL23R Reporter Assay IC50 was < 10 nM.

B4: SEQ ID NO: 306 (peptide)
peptide: [Pen]NT[Trp(7-Me)]K(Ac)[Pen][Phe(4-OMe)][2Nal(6-OH)][αMeK]LN[3Pal][Sar]
modifications: not fully specified (bridges); ends and bridges not checked
For B4, the IL23R Reporter Assay IC50 was < 10 nM.

B5: SEQ ID NO: 307 (peptide)
peptide: [Pen]NT[Trp(7-Me)]K(lipid)[Pen][Phe(4-OMe)][2Nal(6-OH)][αMeK]LN[3Pal][Sar]
modifications: not fully specified (bridges); ends and bridges not checked; also: lipid group unspecified
For B5, the IL23R Reporter Assay IC50 was < 10 nM.

B6: SEQ ID NO: 308 (peptide)
peptide: [Pen]NT[Trp(7-Me)]K(Ac)[Pen][Phe(4-OMe)][2Nal(6-OH)][αMeK]LN[3Pal][Sar]
modifications: not fully specified (bridges); ends and bridges not checked
In the case of B6, the IL23R Reporter Assay IC50 is reported as < 10 nM.

B7: SEQ ID NO: 312 (peptide)
peptide: R[Pen]NT[Trp(7-Br)]K(Ac)[Pen][AEF][2Nal(6-OH)][Thp]EN[3Pal][Sar]
modifications: not fully specified (bridges); ends and bridges not checked
In the case of B7, the IL23R Reporter Assay IC50 is reported as < 10 nM.

B8: SEQ ID NO: 313 (peptide)
peptide: [Pen]NT[Trp(7-Br)]K(Ac)[Pen][AEF][2Nal(6-OH)][Thp]EN[3Pal][Sar]
modifications: not fully specified (bridges); ends and bridges not checked
With B8 the IL23R Reporter Assay IC50 was < 10 nM.

B9: SEQ ID NO: 326 (peptide)
peptide: [Pen]ET[Trp(7-Me)]K(PEG)[Pen][AEF][2Nal(6-OH)][Thp]EN[3Pal][Sar]
modifications: not fully specified (bridges); ends and bridges not checked; also: PEG chain on Lys unspecified
B9 was tested, and the IL23R Reporter Assay IC50 was < 10 nM.

B10: SEQ ID NO: 331 (peptide)
peptide: [Pen]ET[Trp(7-Me)]K(Ac)[Pen][AEF][2Nal(6-OH)][Thp]EN[3Pal][Sar]
modifications: not fully specified (bridges); ends and bridges not checked
For B10, the IL23R Reporter Assay IC50 was < 10 nM.

B11: SEQ ID NO: 334 (peptide)
peptide: [Pen]NT[2‑amino‑3‑(benzo(b)thiophen-3-yl)propanoic acid]K(Ac)[Pen][AEF][2Nal(6-OH)][Thp]EN[3Pal][Sar]
modifications: not fully specified (bridges); ends and bridges not checked
For B11, the IL23R Reporter Assay IC50 was < 10 nM.

B12: SEQ ID NO: 340 (peptide)
peptide: [(R)‑3‑carboxy‑2‑(4-(((R)-5-carboxy-5-hydrazineylpentyl)amino)-4-oxobutanamido)‑N,N,N‑trimethylpropan‑1‑aminium][Pen]NT[Trp(7-Me)]K(Ac)[Pen][AEF][2Nal(6-OH)][Thp]EN[3Pal][Sar]
modifications: not fully specified (bridges); ends and bridges not checked
With B12 the IL23R Reporter Assay IC50 was < 10 nM and the PBMC pSTAT3 IC50 was < 0.01 nM.

B13: SEQ ID NO: 347 (peptide)
peptide: [Pen]NT[Trp(7-Me)]K(Ac)[Pen][AEF][2Nal(6-OH)][Thp]EN[3Pal][Sar]
modifications: not fully specified (bridges); ends and bridges not checked
In the case of B13, the IL23R Reporter Assay IC50 is reported as < 10 nM and the PBMC pSTAT3 IC50 is reported as < 0.1 nM.

B14: SEQ ID NO: 348 (peptide)
peptide: K[Pen]NT[Trp(7-Me)]K[Pen][AEF][2Nal(6-OH)][Thp][Aad]N[3Pal][Sar]
modifications: not fully specified (residue 6, bridges); ends and bridges not checked
B14 was tested, and the IL23R Reporter Assay IC50 was < 10 nM.

B15: SEQ ID NO: 5 (peptide)
peptide: CNT[Trp(7-Me)]K(Ac)[αMeC][2‑amino‑3‑(4-(2-aminoethoxy)phenyl)propanoic acid][2‑amino‑3‑(6-hydroxynaphthalen-2-yl)propanoic acid][Thp]K(Ac)N[3Pal][Sar]
modifications: ends and bridges not checked
B15 was tested, and the IL23R Reporter Assay IC50 was < 10 nM and the PBMC pSTAT3 IC50 was < 0.01 nM.

B16: SEQ ID NO: 372 (peptide)
peptide: [Pen]ET[Trp(7-Me)]K(Ac)[Pen][2‑amino‑3‑(4-(2-aminoethoxy)phenyl)propanoic acid][2‑amino‑3‑(6-hydroxynaphthalen-2-yl)propanoic acid][Thp]EN[3Pal][Sar]
modifications: not fully specified (bridges); ends and bridges not checked
For B16, the IL23R Reporter Assay IC50 was < 10 nM and the PBMC pSTAT3 IC50 was < 0.01 nM.

B17: SEQ ID NO: 378 (peptide)
peptide: [Pen]NT[Trp(7-Me)]K(Ac)[Pen][2‑amino‑3‑(4-(2-aminoethoxy)phenyl)propanoic acid][2‑amino‑3‑(6-hydroxynaphthalen-2-yl)propanoic acid][Thp]EN[3Pal][Sar]
modifications: not fully specified (bridges); ends and bridges not checked
With B17 the IL23R Reporter Assay IC50 was < 10 nM and the PBMC pSTAT3 IC50 was < 0.01 nM.

B18: SEQ ID NO: 379 (peptide)
peptide: [Pen]NT[Trp(7-Me)]K(Ac)[Pen][2‑amino‑3‑(4-(2-aminoethoxy)phenyl)propanoic acid][2‑amino‑3‑(6-hydroxynaphthalen-2-yl)propanoic acid][Thp]EN[3Pal][Sar]
modifications: not fully specified (bridges); ends and bridges not checked
In the case of B18, the IL23R Reporter Assay IC50 is reported as < 10 nM.

B19: SEQ ID NO: 380 (peptide)
peptide: [Pen]NT[Trp(7-Me)]K(Ac)[Pen][2‑amino‑3‑(4-(2-aminoethoxy)phenyl)propanoic acid][2‑amino‑3‑(6-hydroxynaphthalen-2-yl)propanoic acid][Thp]EN[3Pal][Sar]
modifications: not fully specified (bridges); ends and bridges not checked
With B19 the IL23R Reporter Assay IC50 was < 10 nM.

B20: SEQ ID NO: 382 (peptide)
peptide: [Pen]ET[Trp(7-Me)][N,N,N‑trimethylhomolysine][Pen][2‑amino‑3‑(4-(2-(methylamino)ethoxy)phenyl)propanoic acid][2‑amino‑3‑(6-hydroxynaphthalen-2-yl)propanoic acid][Thp]EN[3Pal][Sar]
modifications: not fully specified (bridges); ends and bridges not checked
B20 was tested, and the IL23R Reporter Assay IC50 was < 10 nM and the PBMC pSTAT3 IC50 was < 0.01 nM.

B21: SEQ ID NO: 388 (peptide)
peptide: [dLys(Me3)][Pen]NT[Trp(7-Me)]K(Ac)[Pen][2‑amino‑3‑(4-(2-aminoethoxy)phenyl)propanoic acid][2‑amino‑3‑(6-hydroxynaphthalen-2-yl)propanoic acid][Thp]EN[3Pal][Sar]
modifications: not fully specified (bridges); ends and bridges not checked
With B21 the IL23R Reporter Assay IC50 was < 10 nM and the PBMC pSTAT3 IC50 was < 0.01 nM.

B22: SEQ ID NO: 48 (peptide)
peptide: R[Pen]NT[Trp(7-Me)]K(Ac)[Pen][5‑(4-(2-amino-2-carboxyethyl)phenoxy)‑N,N,N‑trimethylpentan‑1‑aminium][2‑amino‑3‑(6-hydroxynaphthalen-2-yl)propanoic acid][Thp]EN[X7][Sar]
modifications: disulfide 2-7 (inferred); ends not checked
With B22 the IL23R Reporter Assay IC50 was < 10 nM.

B23: SEQ ID NO: 397 (peptide)
peptide: [Pen]ET[Trp(7-Me)]K(Ac)[Pen][2‑amino‑3‑(4-(2-aminoethoxy)phenyl)propanoic acid][2‑amino‑3‑(6-hydroxynaphthalen-2-yl)propanoic acid][Thp]EN[3Pal][Sar]
modifications: not fully specified (bridges); ends and bridges not checked
With B23 the IL23R Reporter Assay IC50 was < 10 nM and the PBMC pSTAT3 IC50 was < 0.01 nM.

B24: SEQ ID NO: 49 (peptide)
peptide: R[Pen]NT[Trp(7-Me)]K(Ac)[Pen][2‑amino‑3‑(4-(2-aminoethoxy)phenyl)propanoic acid][2‑amino‑3‑(6-hydroxynaphthalen-2-yl)propanoic acid][Thp]K(Ac)N[X7][Sar]
modifications: disulfide 2-7 (inferred); ends not checked
With B24 the IL23R Reporter Assay IC50 was < 10 nM.
